From publication PMC7371201 come the findings set out here.

Data set [1] concerns NbGlk1(83-402) (Nicotiana benthamiana). Put plainly: fluorescence anisotropy. To be noted: DNA annealed in 150 mM NaCl, 15 mM Na citrate, binding buffer, pH and temperature not given in the material. For orientation: Fluorescence polarisation rises when a labelled molecule tumbles more slowly, as on binding a larger partner.
Data set [2] has as its target NbGlk1(83–402) (N. benthamiana (from the prefix Nb)). Put plainly: SEC; purified recombinant proteins run alone and after co-incubation; peak fractions visualised by SDS-PAGE. In general terms: SEC sorts molecules by how far they enter the pores of the column.
The target of data set [3] is NbDBCP-T (amino acids 1–414 of NbDBCP) (Nicotiana benthamiana). Put plainly: SEC; NbDBCP-T alone; approximate molecular weight by gel filtration chromatography.

The Kd is the free concentration of one partner at which half of the binding sites on the other are occupied at equilibrium, for simple one-to-one binding. Read a low Kd as higher affinity. Regarding “CGGATATCCACGGATATCCACGGATATCCACGGATATCCACGGATATCCC (double strand) [FA-5/FA-6 concatenated GGATATCC GLK site duplex]”, the Kd is 0.11 µM in data set [1] (NbGlk1 alone) and 0.16 µM in data set [1] (with NbDBCP-T (1-414)).
As a reminder, the stoichiometry N is a count of units in the complex or per binding partner. For “NbDBCP-T (amino acids 1–414 of NbDBCP) (domain or fragment)”, the left:right ratio of NbDBCP within the 12-mL elution volume (densitometry; 1.37 for NbDBCP-T alone) in data set [2] worked out at 1.6. Moreover, the stoichiometry N in data set [3] is 2.
